Test results as given in the supplement of paper PMC9732359.
± gives the uncertainty stated by the source.

Test: protein stability index of a GFP-peptide fusion (yeast GPS) (PSI 1-4); higher = more stable; sorted into four equal gates, so the index is relative within each strain
Summary of the method: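 Tiled 17-residue peptides from yeast proteins were fused downstream of GFP on a plasmid that also expresses Cherry, and the pooled library was carried in yeast. Mid-log cultures grown in leucine-free medium were sorted into four equal gates by GFP/Cherry fluorescence ratio. Plasmids from each gate were PCR-amplified and Illumina-sequenced, and reads were assigned to strains by barcodes. Each peptide's protein stability index is the sum, over gates, of the gate's read frequency multiplied by its gate number.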

KFFQKKIHLYEKKLEDY [YGL172W/NUP49]
protein stability index (doa10∆): 2.83 ± 0.093
protein stability index (pdr5∆): 2.75 ± 0.089
protein stability index (san1∆): 2.71 ± 0.071
protein stability index (ubr1∆): 2.94 ± 0.089

SLISTRNDSTVNDSVIS [BRN1]
protein stability index (doa10∆): 2.6 ± 0.081
protein stability index (pdr5∆): 2.81 ± 0.077
protein stability index (san1∆): 2.72 ± 0.06
protein stability index (ubr1∆): 2.67 ± 0.059

LRRSGQIANDPSKKRRR [SMD1]
protein stability index (doa10∆): 2.58 ± 0.078
protein stability index (pdr5∆): 3.01 ± 0.15
protein stability index (san1∆): 2.73 ± 0.086
protein stability index (ubr1∆): 3.23 ± 0.1

KRRIEEEQEKINSAPDF [ISW2]
protein stability index (doa10∆): 3.4 ± 0.2
protein stability index (pdr5∆): 3.58 ± 0.22
protein stability index (san1∆): 2.98 ± 0.15
protein stability index (ubr1∆): 3.57 ± 0.099

AKKRKTLILIQNPENLL [SIR3]
protein stability index (doa10∆): 3.04 ± 0.094
protein stability index (pdr5∆): 2.54 ± 0.099
protein stability index (san1∆): 3.11 ± 0.092
protein stability index (ubr1∆): 2.78 ± 0.096

SVTIISAGNDKMVKAWN [ASC1]
protein stability index (doa10∆): 2.35 ± 0.22

MQKPVPFVPVLDRRFEI [FAS1]
protein stability index (doa10∆): 1.98 ± 0.034
protein stability index (pdr5∆): 1.95 ± 0.03
protein stability index (san1∆): 1.82 ± 0.043
protein stability index (ubr1∆): 1.92 ± 0.028

DRREKAERTMSKKETKL [SMC2]
protein stability index (doa10∆): 3.31 ± 0.13
protein stability index (pdr5∆): 3.36 ± 0.092
protein stability index (san1∆): 3.19 ± 0.12
protein stability index (ubr1∆): 3.39 ± 0.099

QKTVFDELCKLVTCEGS [SRP54]
protein stability index (doa10∆): 1.19 ± 0.1
protein stability index (pdr5∆): 1.48 ± 0.091
protein stability index (san1∆): 1.25 ± 0.18
protein stability index (ubr1∆): 1.14 ± 0.086
